The assay concerns the target SARS-CoV-2 RBD protein (SARS-CoV-2) (UniProt P0DTC2).

This passage reports IC50 results from patent publication US20230250156A1.

Where “and” joins values, the source holds several entries; their conditions need not be identical. Identical values can stand only once.

By IC50 is commonly meant the concentration at which inhibition is half-maximal. For “ACE2 Ig-TD Quad (ACE2(18-615) Ig-TD) (Fc fusion)”, the IC50 was 0.45 nM and 0.449 nM.
